± gives the uncertainty stated by the source.
Test: protein stability index of a GFP-peptide fusion (yeast GPS) (PSI 1-4); higher = more stable; sorted into four equal gates, so the index is relative within each strain
Procedure, shortened: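 For each peptide, the protein stability index sums the read frequency in every gate after multiplying it by the gate number. Read frequencies came from plasmids that were PCR-amplified from each gate and Illumina-sequenced, with reads assigned to strains by barcodes. The gates were four equal bins of GFP/Cherry fluorescence ratio applied to mid-log yeast in leucine-free medium carrying a pooled library of tiled 17-residue yeast protein peptides fused downstream of GFP on a Cherry-expressing plasmid.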

Sequence	protein stability index (doa10∆)	protein stability index (pdr5∆)	protein stability index (san1∆)	protein stability index (ubr1∆)
PAPSIPSTGFKFSLPFE [YLR335W/NUP2]	2.53 ± 0.1	2.94 ± 0.072	2.92 ± 0.088	3.05 ± 0.086
DLDTVLKKDIESLRGIL [SRP72]	1.63 ± 0.088	1.38 ± 0.096	1.37 ± 0.25	1.61 ± 0.089
FAAILVLLVLPFTDRSV [COB]	2.88 ± 0.081	1.3 ± 0.095	1.54 ± 0.15	1.13 ± 0.065
SLHTKNVFGTLQRHSGI [YLR018C/POM34]	2.56 ± 0.066	2.5 ± 0.071	2.31 ± 0.15	2.97 ± 0.06
SRIVEIFALCIYNSTDS [YML103C/NUP188]	1.2 ± 0.093	1.21 ± 0.086	1.52 ± 0.11	1.2 ± 0.057
HVSHEAMREVNDEKRVK [YIL149C/MLP2]	2.74 ± 0.097	2.89 ± 0.15		3.03 ± 0.12
NSLTKYPDLKAFHNNLK [MED1]	2.9 ± 0.11	3.16 ± 0.089	2.89 ± 0.092	2.93 ± 0.062
RYRVDLLNTDHTLDPSL [RPO21]	3.09 ± 0.072	2.95 ± 0.053	2.92 ± 0.05	2.9 ± 0.062
SPFSITFSVYHESTSRT [YMR129W/POM152]	2.36 ± 0.11	2.55 ± 0.062	2.76 ± 0.056	2.33 ± 0.06
AAGTSQARTATLKYICA [RPC10]	2.16 ± 0.15	2.07 ± 0.11	1.72 ± 0.11	2.24 ± 0.094
KELNTERQIFLEACIVR [CDC53]	2.09 ± 0.048	2.23 ± 0.072	2.5 ± 0.056	2.57 ± 0.047
SFTFASSKTSQPKPLFS [YOR098C/NUP1]	2.37 ± 0.042	2.44 ± 0.035	2.27 ± 0.046	2.69 ± 0.029
GVMSLLQKSSKSMITSE [YAR002W/NUP60]	2.46 ± 0.06	2.61 ± 0.062	2.19 ± 0.076	2.95 ± 0.063
IIHVLTTMFENTGWSCS [RGR1]	2.16 ± 0.054	2.33 ± 0.077	2.7 ± 0.077	2.73 ± 0.044
YASLKLPNQIPGEYITT [YMR129W/POM152]	1.97 ± 0.049	2.19 ± 0.059	2.07 ± 0.057	2.09 ± 0.036
LQKSSKSMITSEGEQKS [YAR002W/NUP60]	2.84 ± 0.044	2.97 ± 0.047	2.85 ± 0.04	3.06 ± 0.046
TDQILQLLKEDSEKRNK [RRP45]	3.12 ± 0.16	3.3 ± 0.29	3.52 ± 0.098	3.36 ± 0.11
MVNVPKTRKTYCKGKTC [RPL42A]	1.42 ± 0.15	1.41 ± 0.1	1.99 ± 0.25	1.35 ± 0.075
FLNNGEVDSASDFISKL [RPN3]	2.57 ± 0.29	3.33 ± 0.21	2.8 ± 0.27	3.29 ± 0.13
SILESSMFLRIDYSNSQ [RGR1]	2.42 ± 0.083	2.14 ± 0.064	1.59 ± 0.095	2.41 ± 0.063
RAKPVTNSSILLGKILP [RRP6]	2.2 ± 0.074	2.14 ± 0.077	2.27 ± 0.12	2.39 ± 0.13
QMIDTSILPTRDDLFVR [NUT1]	2.86 ± 0.06	2.88 ± 0.062	2.73 ± 0.08	2.33 ± 0.044
NIKHKHTSIRETLENGE [SMC2]	1.46 ± 0.12	1.74 ± 0.21	1.54 ± 0.2	1.68 ± 0.24
RIIREMFAYAKEHEPCI [RPT4]	2.43 ± 0.1	2.65 ± 0.12	2.83 ± 0.11	2.58 ± 0.093
LLARVIQMNNSLQNNLQ [SNF11]	3.01 ± 0.11	2.46 ± 0.097	2.36 ± 0.084	2.06 ± 0.086
HTSSGSVSFKVFLLLQA [BRR2]	1.79 ± 0.042	1.84 ± 0.044	1.5 ± 0.074	1.62 ± 0.056
